This is an account of results in patent publication US20260209384A1 (Stanford University, published 2026).

The target of this test is T1, recombinant human GPC2 (R&D Systems) (human, UniProt Q8N158 24-554, limits assumed, labelled with Dylight488 or Dylight650 in the flow cytometry assays; unlabelled in the ELISA).
T1 construct: extracellular domain; also called hGPC2; human Glypican-2
T1 sequence (looked up): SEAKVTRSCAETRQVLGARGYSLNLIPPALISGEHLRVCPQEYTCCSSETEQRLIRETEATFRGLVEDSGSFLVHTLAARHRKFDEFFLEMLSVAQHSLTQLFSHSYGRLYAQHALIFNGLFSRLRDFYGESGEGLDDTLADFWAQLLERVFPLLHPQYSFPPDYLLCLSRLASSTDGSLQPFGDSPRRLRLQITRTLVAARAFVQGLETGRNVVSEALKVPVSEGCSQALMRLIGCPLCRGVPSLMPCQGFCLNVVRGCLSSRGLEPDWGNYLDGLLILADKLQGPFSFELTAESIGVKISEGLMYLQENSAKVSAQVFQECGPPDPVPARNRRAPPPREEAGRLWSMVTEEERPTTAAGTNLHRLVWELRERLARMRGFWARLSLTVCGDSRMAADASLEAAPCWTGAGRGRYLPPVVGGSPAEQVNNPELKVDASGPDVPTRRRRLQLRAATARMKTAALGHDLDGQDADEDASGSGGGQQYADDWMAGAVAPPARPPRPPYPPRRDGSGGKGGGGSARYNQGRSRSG
Put plainly: panning of a human naive Fab phage library against recombinant human GPC2. From the text: A naïve human Fab phage display library constructed from peripheral blood B cells of 50 healthy donors, was used for selection of Fabs against purified recombinant GPC2 ectodomain (R&D Systems) as previously described. The isolated Fabs were expressed, purified and tested for binding to the GPC2 ectodomain through ELISA.

B1: GPC2.27 (Fab from a human naive Fab phage library) (Fab, V domains shown)
VH: EVQLVESGPGLVKPSETLSLTCAVSGYSISSGYYWGWIRQPPGKGLEWIGSIYHSGSTYYNPSLKSRVTISVDTSKNQFSLKLSSVTAADTAVYYCASLPSRGGFDYWGQGTLVTVSS
VL: EIVMTQSPATLSASVGDRVTIACRASQTISRYLNWYQQKPGKAPKLLIYAASSLQSGVSSRFSGSGSGTEFTLTISSLQPEDFATYFCQQTYSPPITFGQGTRLEIKR
notes: Human Fab selected by phage display
As for B1, the binding result was “binds”.
